From publication PMC10968536
pKd: −log10 of the molar value.

Key:
[1] = test system: HalTzlTCCCAG (synthetic (no organism)); assay: fluorescence anisotropy; conditions: Fluorescence anisotropy: 100 nM FAM-TAR in TB buffer, 25 °C, 20 min, ex 480/em 518 nm, one-site fit; CD: 5 µM TAR with 50 µM nucleopeptide (Methods; abstract …)
[2] = test system: HalTzlAGA (synthetic (no organism)); assay: fluorescence anisotropy; conditions: Fluorescence anisotropy: 100 nM FAM-TAR in TB buffer, 25 °C, 20 min, ex 480/em 518 nm, one-site fit; CD: 5 µM TAR with 50 µM nucleopeptide (Methods; abstract …)

Q: With “CCAGAUCUGAGCCUGGGAGCUCUCUGG [5'-FAM(6)-TAR UCU]” as the sequence, how does the pKd [1] read?
A: 4.42

Q: And the pKd [2]?
A: 3.59
